Measured values from patent US20190322720A1.

Experiments:
[1] = target: MUC5AC expressed by CFPAC-1 pancreatic tumor cells (human) (UniProt P98088); test: immunofluorescence, fixed and permeabilized CFPAC-1 cells, 2 µg/ml
[2] = target: MUC5AC expressed by CFPAC-1 pancreatic tumor cells (human) (UniProt P98088); test: FACS, CFPAC cells, 2 µg/ml FITC antibody
MUC5AC (human) [3] = target: MUC5AC (human) (UniProt P98088); test: FACS, Colo-205 cells, 2 µg/ml FITC antibody
MUC5AC (human) [4] = target: MUC5AC (human) (UniProt P98088); test: FACS, SW480 cells, 2 µg/ml FITC antibody
[5] = target: MUC5AC expressed by LS174T colorectal tumor cells (human) (UniProt P98088); test: flow cytometry, LS174T colorectal tumor cells
[6] = target: MUC5AC expressed by LS174T colorectal tumor cells (human) (UniProt P98088); test: FACS, LS174 cells, 2 µg/ml FITC antibody
MUC5AC (human) [7] = target: MUC5AC (human) (UniProt P98088); test: flow cytometry, SW480 colorectal tumor cells
[8] = target: MUC5AC expressed by CFPAC-1 pancreatic tumor cells (human) (UniProt P98088); test: flow cytometry, CFPAC-1 pancreatic tumor cells
MUC5AC (human) [9] = target: MUC5AC (human) (UniProt P98088); test: flow cytometry, Colo-205 colorectal tumor cells
[10] = target: MUC5AC expressed by CFPAC-1 pancreatic tumor cells (human) (UniProt P98088); test: rosetting assay, antibody-coupled beads on CFPAC-1 cells

Sequence of MUC5AC expressed by LS174T colorectal tumor cells (human) (P98088 other isoform, or with tags, fused parts or gaps limits assumed, change not shown): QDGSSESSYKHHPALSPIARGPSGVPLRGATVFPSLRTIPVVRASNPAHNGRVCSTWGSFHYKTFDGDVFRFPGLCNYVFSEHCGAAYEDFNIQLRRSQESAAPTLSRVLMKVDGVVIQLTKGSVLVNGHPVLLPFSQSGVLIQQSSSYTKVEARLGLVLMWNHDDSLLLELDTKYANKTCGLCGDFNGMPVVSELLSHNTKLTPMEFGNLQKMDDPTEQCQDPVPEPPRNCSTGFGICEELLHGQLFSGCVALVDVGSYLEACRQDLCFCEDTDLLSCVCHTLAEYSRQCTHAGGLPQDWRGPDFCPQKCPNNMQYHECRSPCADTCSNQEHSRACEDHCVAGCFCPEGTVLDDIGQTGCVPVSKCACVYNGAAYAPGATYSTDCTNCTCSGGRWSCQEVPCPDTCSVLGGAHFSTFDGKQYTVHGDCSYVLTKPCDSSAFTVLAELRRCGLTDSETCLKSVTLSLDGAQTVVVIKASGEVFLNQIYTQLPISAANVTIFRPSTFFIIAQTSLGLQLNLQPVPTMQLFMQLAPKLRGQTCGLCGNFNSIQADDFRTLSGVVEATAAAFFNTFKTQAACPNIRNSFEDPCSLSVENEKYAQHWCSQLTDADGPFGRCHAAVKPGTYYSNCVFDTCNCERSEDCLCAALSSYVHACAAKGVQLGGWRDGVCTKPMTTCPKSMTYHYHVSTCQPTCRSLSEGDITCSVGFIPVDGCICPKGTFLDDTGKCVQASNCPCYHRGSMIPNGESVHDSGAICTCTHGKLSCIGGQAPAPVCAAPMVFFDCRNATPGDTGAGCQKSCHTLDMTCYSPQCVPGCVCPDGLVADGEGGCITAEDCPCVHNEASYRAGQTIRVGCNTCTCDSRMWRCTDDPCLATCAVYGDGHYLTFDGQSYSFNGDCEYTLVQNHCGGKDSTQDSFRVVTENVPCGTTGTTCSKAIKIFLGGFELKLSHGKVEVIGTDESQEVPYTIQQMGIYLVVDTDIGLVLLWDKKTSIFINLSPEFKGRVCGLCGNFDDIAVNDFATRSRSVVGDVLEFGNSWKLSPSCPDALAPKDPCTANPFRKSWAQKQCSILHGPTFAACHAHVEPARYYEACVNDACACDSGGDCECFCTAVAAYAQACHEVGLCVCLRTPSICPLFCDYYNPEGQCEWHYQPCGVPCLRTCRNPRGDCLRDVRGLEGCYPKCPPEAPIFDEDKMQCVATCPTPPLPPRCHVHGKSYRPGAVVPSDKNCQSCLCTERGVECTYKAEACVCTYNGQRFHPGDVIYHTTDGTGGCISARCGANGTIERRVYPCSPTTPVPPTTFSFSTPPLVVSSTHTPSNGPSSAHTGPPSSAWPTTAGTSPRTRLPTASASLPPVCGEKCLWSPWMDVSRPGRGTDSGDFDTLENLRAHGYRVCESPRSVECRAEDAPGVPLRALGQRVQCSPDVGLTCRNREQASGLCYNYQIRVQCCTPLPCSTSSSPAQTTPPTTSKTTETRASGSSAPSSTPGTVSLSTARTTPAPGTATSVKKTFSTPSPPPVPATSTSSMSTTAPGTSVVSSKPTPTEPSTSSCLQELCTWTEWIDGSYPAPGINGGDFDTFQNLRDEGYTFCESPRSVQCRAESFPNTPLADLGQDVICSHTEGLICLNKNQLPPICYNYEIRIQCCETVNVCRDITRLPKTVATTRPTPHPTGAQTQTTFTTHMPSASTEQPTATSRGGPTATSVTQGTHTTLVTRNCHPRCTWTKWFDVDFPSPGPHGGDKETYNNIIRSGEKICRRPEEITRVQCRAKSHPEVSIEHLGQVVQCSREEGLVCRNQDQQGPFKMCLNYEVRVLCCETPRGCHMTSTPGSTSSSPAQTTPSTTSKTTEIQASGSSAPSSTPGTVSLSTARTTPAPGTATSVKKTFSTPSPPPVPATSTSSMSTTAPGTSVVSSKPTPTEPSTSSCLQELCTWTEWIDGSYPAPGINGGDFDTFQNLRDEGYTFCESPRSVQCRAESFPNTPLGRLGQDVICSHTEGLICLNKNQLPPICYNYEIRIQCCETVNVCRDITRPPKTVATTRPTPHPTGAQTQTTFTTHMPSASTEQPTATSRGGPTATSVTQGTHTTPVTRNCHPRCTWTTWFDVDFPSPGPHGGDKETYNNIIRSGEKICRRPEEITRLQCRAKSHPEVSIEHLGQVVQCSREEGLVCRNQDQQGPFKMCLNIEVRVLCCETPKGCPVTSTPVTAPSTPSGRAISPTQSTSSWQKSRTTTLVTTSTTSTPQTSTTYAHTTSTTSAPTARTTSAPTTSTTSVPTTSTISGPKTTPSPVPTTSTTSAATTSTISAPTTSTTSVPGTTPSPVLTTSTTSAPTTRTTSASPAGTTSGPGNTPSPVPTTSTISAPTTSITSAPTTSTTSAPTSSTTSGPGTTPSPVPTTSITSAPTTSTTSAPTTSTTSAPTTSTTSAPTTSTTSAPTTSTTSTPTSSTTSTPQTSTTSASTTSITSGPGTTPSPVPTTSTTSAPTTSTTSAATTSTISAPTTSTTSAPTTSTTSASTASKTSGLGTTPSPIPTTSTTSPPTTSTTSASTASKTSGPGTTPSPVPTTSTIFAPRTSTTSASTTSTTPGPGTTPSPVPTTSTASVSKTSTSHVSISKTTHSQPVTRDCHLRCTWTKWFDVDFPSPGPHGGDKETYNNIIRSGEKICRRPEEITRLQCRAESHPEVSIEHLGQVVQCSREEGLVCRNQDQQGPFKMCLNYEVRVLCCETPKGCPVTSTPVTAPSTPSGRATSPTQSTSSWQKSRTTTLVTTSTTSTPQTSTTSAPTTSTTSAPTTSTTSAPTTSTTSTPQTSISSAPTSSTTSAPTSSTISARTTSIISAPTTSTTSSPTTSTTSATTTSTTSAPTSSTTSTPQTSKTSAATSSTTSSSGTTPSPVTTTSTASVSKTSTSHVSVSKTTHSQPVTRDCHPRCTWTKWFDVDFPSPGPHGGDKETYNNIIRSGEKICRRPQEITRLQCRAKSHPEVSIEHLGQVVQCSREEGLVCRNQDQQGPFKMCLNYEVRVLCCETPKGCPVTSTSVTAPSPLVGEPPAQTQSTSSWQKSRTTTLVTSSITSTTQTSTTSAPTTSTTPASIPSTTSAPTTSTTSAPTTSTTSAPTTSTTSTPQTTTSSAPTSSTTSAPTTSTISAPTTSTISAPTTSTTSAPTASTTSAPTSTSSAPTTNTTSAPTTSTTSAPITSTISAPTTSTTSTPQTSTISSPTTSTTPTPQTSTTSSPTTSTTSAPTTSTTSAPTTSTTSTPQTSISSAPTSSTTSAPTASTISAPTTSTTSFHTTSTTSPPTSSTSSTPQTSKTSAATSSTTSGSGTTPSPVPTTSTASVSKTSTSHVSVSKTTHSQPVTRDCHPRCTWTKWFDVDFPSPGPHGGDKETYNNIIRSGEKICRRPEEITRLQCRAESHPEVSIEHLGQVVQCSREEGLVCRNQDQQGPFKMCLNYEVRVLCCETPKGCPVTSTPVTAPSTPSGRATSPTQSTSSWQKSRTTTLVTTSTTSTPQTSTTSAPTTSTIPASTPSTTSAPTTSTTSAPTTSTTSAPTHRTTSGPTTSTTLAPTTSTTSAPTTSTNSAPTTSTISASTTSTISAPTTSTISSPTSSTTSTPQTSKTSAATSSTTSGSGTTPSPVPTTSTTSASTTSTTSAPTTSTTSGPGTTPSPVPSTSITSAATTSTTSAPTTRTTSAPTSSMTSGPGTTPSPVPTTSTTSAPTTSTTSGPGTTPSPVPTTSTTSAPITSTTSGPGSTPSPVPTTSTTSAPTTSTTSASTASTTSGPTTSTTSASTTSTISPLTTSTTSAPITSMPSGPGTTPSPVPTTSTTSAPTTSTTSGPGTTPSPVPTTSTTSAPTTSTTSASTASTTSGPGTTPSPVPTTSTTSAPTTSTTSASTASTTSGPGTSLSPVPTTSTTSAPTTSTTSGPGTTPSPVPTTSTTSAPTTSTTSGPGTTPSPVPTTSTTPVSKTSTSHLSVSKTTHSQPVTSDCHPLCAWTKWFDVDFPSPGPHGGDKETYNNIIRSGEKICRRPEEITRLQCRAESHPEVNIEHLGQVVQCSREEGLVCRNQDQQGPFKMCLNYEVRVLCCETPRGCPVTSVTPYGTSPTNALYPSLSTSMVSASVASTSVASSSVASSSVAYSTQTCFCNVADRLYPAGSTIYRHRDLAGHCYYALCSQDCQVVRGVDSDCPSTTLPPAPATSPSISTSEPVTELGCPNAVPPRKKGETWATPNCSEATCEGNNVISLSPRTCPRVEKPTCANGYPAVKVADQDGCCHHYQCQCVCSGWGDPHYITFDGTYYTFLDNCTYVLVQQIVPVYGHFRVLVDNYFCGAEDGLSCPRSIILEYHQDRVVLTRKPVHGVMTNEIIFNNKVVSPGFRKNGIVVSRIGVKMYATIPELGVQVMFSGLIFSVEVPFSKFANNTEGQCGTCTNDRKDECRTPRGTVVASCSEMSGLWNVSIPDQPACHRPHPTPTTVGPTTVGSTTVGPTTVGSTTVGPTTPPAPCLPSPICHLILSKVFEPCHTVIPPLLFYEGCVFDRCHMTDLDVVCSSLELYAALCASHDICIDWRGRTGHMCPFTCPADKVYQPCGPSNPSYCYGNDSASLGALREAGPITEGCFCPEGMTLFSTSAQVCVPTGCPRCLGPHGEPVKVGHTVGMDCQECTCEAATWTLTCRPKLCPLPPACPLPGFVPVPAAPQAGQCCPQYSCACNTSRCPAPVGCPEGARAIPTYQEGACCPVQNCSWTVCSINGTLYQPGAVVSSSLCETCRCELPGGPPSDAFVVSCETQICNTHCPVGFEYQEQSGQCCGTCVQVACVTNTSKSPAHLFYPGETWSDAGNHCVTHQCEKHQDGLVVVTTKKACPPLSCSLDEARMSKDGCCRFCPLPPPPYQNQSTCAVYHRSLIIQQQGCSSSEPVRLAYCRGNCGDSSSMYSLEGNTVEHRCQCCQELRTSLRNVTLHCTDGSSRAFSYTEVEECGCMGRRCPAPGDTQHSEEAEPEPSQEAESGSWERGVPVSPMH
Sequence of MUC5AC expressed by CFPAC-1 pancreatic tumor cells (human) (P98088 other isoform, or with tags, fused parts or gaps limits assumed): as the sequence (P98088 other isoform, or with tags, fused parts or gaps limits assumed, change not shown) above
Sequence of MUC5AC (human) (P98088 other isoform, or with tags, fused parts or gaps limits assumed): as the sequence (P98088 other isoform, or with tags, fused parts or gaps limits assumed, change not shown) above

1-13M1 (Abcam Inc.) (antibody) was tested. Which % of cells stained [1] did it give?
The % of cells stained was 100%.

2-11M1 (Abcam Inc.) (antibody) was tested. Which % of cells stained [1] did it give?
The % of cells stained was less than 5%.

Isotype control antibody was tested. Which Percent positive [2] did it give?
The Percent positive was 1.79%.

And the Percent positive (MUC5AC (human) [3])?
The Percent positive was 2.33%.

And the Percent positive (MUC5AC (human) [4])?
The Percent positive was 3.38%.

And the % Cells Stained [5]?
The % Cells Stained was 3.85%.

What about the mfi [5] of the same substance?
The mfi was 35 mfi.

And the Percent positive [6]?
The Percent positive was 3.85%.

What about the % Cells Stained (MUC5AC (human) [7]) of the same substance?
Its % Cells Stained is 3.38%.

And the mfi (MUC5AC (human) [7])?
Its mfi is 56 mfi.

What about the % Cells Stained [8] of the same substance?
Its % Cells Stained is 1.79%.

And the mfi [8]?
The mfi was 25 mfi.

What about the % Cells Stained (MUC5AC (human) [9]) of the same substance?
Its % Cells Stained is 2.33%.

What about the mfi (MUC5AC (human) [9]) of the same substance?
The mfi was 34 mfi.

How did the Rosetted cells (>8 beads) [10] turn out when human IgG (antibody) was run?
The Rosetted cells (>8 beads) was 0%.
